Experimental data: patent publication US20060134116A1, “Ca 125 tumor antigen function and uses thereof” (Universite De Sherbrooke, priority 2002, published 2006)

Columns and labels:
CA125 [1] = target: T1, CA125 (Homo sapiens, UniProt Q8WXI7); assay: Co-immunoprecipitation of scFvs with anti-CA125 MAbs from transiently transfected NIH:OVCAR-3 cells; type: binding; settings: transient transfection in NIH:OVCAR-3
T1 construct: human ovarian cancer cell lines OVCAR-3 (high expresser of CA125); endogenous in cells; host or cells: NIH:OVCAR-3
From the text: C) Immunoprecipitation and co-immunoprecipitation of Golgi- and ER-targeted OC125-3.11 scFv from transient transfection of pSTCF.GOLGI-OC125-3.11 and pSTCF.KDEL-OC125-3.11 in NIH:OVCAR-3 human ovarian cancer cells using anti-c-myc, anti-CA125 Mabs OC125 and VK-8, western blot probed with anti-c-myc 9E10 antibody.
D) Immunoprecipitation and co-immunoprecipitation of Golgi- and ER-targeted VK-8-1.9 scFv from transient transfection of pSTCF-GOLGI-VK8-1.9 and pSTCF.KDEL-VK8-1.9 in NIH:OVCAR-3 human ovarian cancer cells using anti-c-myc, anti-CA125 Mabs OC125 and VK-8, Western blot probed with anti-c-myc 9E10 antibody.
E) Immunoprecipitation and co-immunoprecipitation of ER-targeted VK-8-4.5 scFv from transient transfection of pSTCF.KDEL-VK8-4.5 in NIH:OVCAR-3 human ovarian cancer cells using anti-c-myc, anti-CA125 Mabs OC125 and VK-8, western blot prober with anti-c-myc 9E10 antibody. […]
Immunoprecipitation—NIH-OVCAR-3 cells were transiently transfected with the various scFv constructs using commercially available FuGene 6 transfection agent using the manufacturer's instruction. […] Protein concentration was measured by the Bradford method using the Bio-Rad protein assay according to the instruction provided by the manufacturer. […] Agarose or sepharose beads were pelleted and supernatants were analyzed by immunoblots for the presence of the various scFvs.

CA125 [2] = target: T1, CA125; assay: Immunofluorescence of CA125 at the cell surface, transient transfection of OVCAR-3 cells; type: cell-based; settings: transiently transfected OVCAR-3 cells
From the text: B) NIH:OVCAR-3 cellswere transiently transfected with pSTCF.Golgi-OC125-3.11 or pSTCF.KDEL-VK-8-1.9 constructs and 48 hrs later the cells were fixed in ice-cold methanol. Expression of scFvs and CA125 was detected using the anti-c-myc A14 polyclonal antibody and anti-CA125 M11 monoclonal antibody. Oregon green anti-rabbit and Texas red anti-mouse secondary antibodies were used.
Anti-CA125 scFvs act therefore act as potent negative modulators of CA125.
Immunofluorescence—Transiently transfected NIH-OVCAR-3 cells or stable NIH:OVCAR-3 clones expressing the various anti-CA125 scFvs were grown on glass slide until a 50% confluence was reached. […] Slides were next washed 3 times in cold PBS, incubated for 30 min at room temperature with anti-mouse or anti-rabbit secondary antibodies coupled to Texas Red or Oregon green (1:1000), washed with PBS and mounted for visualization by fluorescence microscopy. Expression of the various anti-CA125 scFvs and CA125 was detected using anti-c-myc antibody (9E10, 1:500) and OC125 antibody (1:500). Localization of the scFvs was determined by comparing their pattern of expression with that of calreticulin and ADP-ribosylation factor for ER and Golgi localization using anti-calreticulin antibody (1:10000) anti-calreticulin and anti-ADP-ribosylation factor (1:400).

purified human CA125 = assay: CA125 binding analysis by ELISA (periplasmic extracts); settings: commercially purified human CA125
From the text: A) CA125 binding activity of anti-CA125 OC125, VK-8-1.9 and VK-8-4.5 scFvs present in periplasmic extracts of bacteria as well as anti-Bcl2 4D7 scFv compared to parental Mabs OC125 and VK-8 and to PBS and periplasmic extract from bacteria, uninduced, IPTG-induced and controls.
The inventors constructed single-chain antibody libraries derived from the OC125 and VK-8 hybridoma cell lines specific for CA125. The two scFv libraries were screened for CA125 binding activity by ELISA using commercially purified human CA125. […] The inventors hypothesized that if those scFvs (CA125 binders) once expressed intracellularly were localized to and retained within the ER or the Golgi then CA125 antigen would be entrapped during synthesis and thus be unable to localize at cell surface and interact with other intracellular and/or extracellular proteins to achieve its function(s). The scFvs were targeted to the ER or trans-median Golgi by sequence fusion with an Igκ secretion leader and a KDEL signal or fusion with the N-terminal 81 amino acids of human beta 1,4-galactosyltransferase, a protein resident of the trans-medial Golgi (47-49) in addition ot a c-myc tag at the C-terminus.
Binding analysis by ELISA—Periplasmic extracts were prepared as previously described (29). […] The OD was read at 450 ηm in an ELISA plate reader.

B1: OC125-3.11: anti-CA125 single-chain antibody derived from the OC 125 monoclonal antibody, fragment coded by SEQ ID NO 2 (protein)
chain: QVQLQQSGTVLARPGASVKMSLQASGYTFTSYWMHWVKQRPGQGLEWIGAIYPGNSDTSYNQKFKGKAKLTAVTSTSTAYMELSSLTNEDSAVYYCTRSYDWYFDVWGQGTTVTVSSGGGGSGGGGSGGGGSDIELTQSPAILSVSPGERVSFSCRASQSIGTDMHWYQQRTNGSPRLLIKYASESISGIPSRFSGSGSGTDFTLSINSVESEDIADYYCQQSYSWPLTFGAGTKLEIK
modifications: Golgi targeting; VH-linker-VL portion of OC125-3.11
CA125 [1]
  co-immunoprecipitation with CA125 using anti-CA125 OC125 and VK-8 MAbs: co-immunoprecipitated
CA125 [2]
  expression of CA125 at the cell surface: lost expression of CA125 at the cell surface
Purified human CA125
  CA125 binding activity by ELISA: bound to CA125
